Data as given in publication PMC6800875, “Codon harmonization reduces amino acid misincorporation in bacterially expressed P. falciparum proteins and improves their immunogenicity” (AMB Express, 2019).

What was measured:
[1] = target: the molecule itself; assay: SDS-PAGE with western blot (band that resists denaturation); purified protein, untreated or incubated at 37 °C or 65 °C for 1, 4 and 24 h, on 4-20% Tris-glycine SDS-PAGE; blots probed with anti-His mAb and mAb 3D11.D4
[2] = target: the molecule itself; assay: SEC; calibrated Superdex G-200 column, PBS pH 7.4, 0.5 mL/min, 4 °C; three standards (66, 29, 12.4 kDa); oligomer size estimated from the elution volume

Row | Protein | stoichiometry N [1] | stoichiometry N [2]
1 | N-PfCelTOS (P. falciparum cell-traversal protein for ookinetes and sporozoites, expressed from the native codon sequence) (natural protein, begins at F R G and holds 158 PfCelTOS residues; 174 residues in all with the 16 amino acid linker; natural residue numbering; also called N-protein; source: E. coli B834 (DE3), purified (Ni-NTA, Q-Sepharose); not shown: His6 (within a 16 amino acid linker), N-terminal, kept) FRGNNGHNSSSSLYNGSQFIEQLNNSFTSAFLESQSMNKIGDDLAETISNELVSVLQKNSPTFLESSFDIKSEVKKHAKSMLKELIKVGLPSFENLVAENVKPPKVDPATYGIIVPVLTSLFNKVETAVGAKVSDEIWNYNSPDVSESEESLSDDFFD | ~2 | ~3
2 | CH-PfCelTOS (P. falciparum cell-traversal protein for ookinetes and sporozoites, expressed from the codon harmonized sequence) (natural protein, UniProt Q8I5P1 25-182, looked up, begins at F R G and holds 158 PfCelTOS residues; 174 residues in all with the 16 amino acid linker; natural residue numbering; also called CH-protein; source: E. coli B834 (DE3), purified (Ni-NTA, Q-Sepharose); not shown: His6 (within a 16 amino acid linker), N-terminal, kept) FRGNNGHNSSSSLYNGSQFIEQLNNSFTSAFLESQSMNKIGDDLAETISNELVSVLQKNSPTFLESSFDIKSEVKKHAKSMLKELIKVGLPSFENLVAENVKPPKVDPATYGIIVPVLTSLFNKVETAVGAKVSDEIWNYNSPDVSESEESLSDDFFD | ~2 | ~4
3 | histidine tag-free CH-PfCelTOS (natural protein, two non-native amino acid residues introduced by cloning; the chain is 161 residues long, so one more residue stands before them; begins at F R G and holds 158 PfCelTOS residues; natural residue numbering; Made from the CH-PfCelTOS clone by replacing the His-tag linker; this is surmised; also called His-tag free PfCelTOS; Histidine tag-free PfCelTOS; source: E. coli, purified (Q-Sepharose twice, …)) GTFRGNNGHNSSSSLYNGSQFIEQLNNSFTSAFLESQSMNKIGDDLAETISNELVSVLQKNSPTFLESSFDIKSEVKKHAKSMLKELIKVGLPSFENLVAENVKPPKVDPATYGIIVPVLTSLFNKVETAVGAKVSDEIWNYNSPDVSESEESLSDDFFD |  | ~4
